In paper PMC5003816 one finds ratio to parent data, which are given here for one molecule.

The assay deals with HSP70 (mouse, endogenous), Q61696. Kind of assay: UBQLN2 IP and western blot quantification (primary MEFs). The following applies: chain shown with the change; n = 3; read off a plot. Background: Immunoblotting shows a protein as a band on a membrane.
Chain of HSP70 (mouse, endogenous), Q61696 (Q61696 whole entry): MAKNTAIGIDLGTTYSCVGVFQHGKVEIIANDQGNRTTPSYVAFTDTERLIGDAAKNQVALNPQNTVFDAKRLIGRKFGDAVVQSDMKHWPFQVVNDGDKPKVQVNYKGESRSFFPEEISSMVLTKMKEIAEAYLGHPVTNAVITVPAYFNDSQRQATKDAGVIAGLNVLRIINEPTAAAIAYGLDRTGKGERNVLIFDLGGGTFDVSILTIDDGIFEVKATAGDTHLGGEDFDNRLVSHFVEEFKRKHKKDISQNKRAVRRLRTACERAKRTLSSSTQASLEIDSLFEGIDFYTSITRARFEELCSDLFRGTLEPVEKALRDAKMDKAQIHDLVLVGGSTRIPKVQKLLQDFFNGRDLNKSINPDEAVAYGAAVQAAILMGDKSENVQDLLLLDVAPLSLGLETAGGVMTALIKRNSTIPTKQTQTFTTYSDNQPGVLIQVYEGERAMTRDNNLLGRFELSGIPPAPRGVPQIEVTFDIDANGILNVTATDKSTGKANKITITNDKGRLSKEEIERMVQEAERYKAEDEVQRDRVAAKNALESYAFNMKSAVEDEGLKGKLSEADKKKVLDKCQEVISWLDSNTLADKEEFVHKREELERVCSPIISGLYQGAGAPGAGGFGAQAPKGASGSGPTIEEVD

B1: UBQLN2 (mouse, endogenous, wild type), Q9QZM0 mP520T (protein)
chain: MAENGESSGPPRPSRGPAAAPGAASPPAEPKIIKVTVKTPKEKEEFAVPENSTVQQFKEAISKRFKSQTDQLVLIFAGKILKDQDTLMQHGIHDGLTVHLVIKSQNRPQGQATTQPSTTAGTSTTTTTTTTAAAPAATTSSAPRSSSTPTTTNSSSFGLGSLSSLSNLGLNSPNFTELQNQMQQQLLASPEMMIQIMENPFVQSMLSNPDLMRQLIMANPQMQQLIQRNPEISHLLNNPDIMRQTLEIARNPAMMQEMMRNQDLALSNLESIPGGYNALRRMYTDIQEPMLNAAQEQFGGNPFATVGSSSTSGEGTQPSRTENRDPLPNPWAPPPTTQTAATTTTTTTTSSGSGSGSSSSSTTAGNTMAAANYVASIFSTPGMQSLLQQITENPQLIQNMLSAPYMRSMMQSLSQNPDMAAQMMLSSPLFTSNPQLQEQMRPQLPNFLQQMQNPETIAAMSNPRAMQALMQIQQGLQTLATEAPGLIPSFAPGVGMGVLGTAITPVGPVTPIGPIGPIVTFTPIGPIGPIGPTGPASSPGSTGTGIPPATTVSSSAPTETISPTSESGPNQQFIQQMVQALTGGSPPQPPNPEVRFQQQLEQLNAMGFLNREANLQALIATGGDINAAIERLLGSQPS
Take B1: the ratio to parent amounted to 0.38.
